Laboratory results as given in patent US20040116336A1, “Peptide derivatives” (priority 2002, published 2004).
Starred links: 1 amine or outer side, 2 acyl side, 3 side chain; linkers in the order of their positions; H or OH if unused. Non-standard residues stand in square brackets, D forms with d. No end group written: not given here. *: point of attachment. Phe(4-Cl) = N[C@@H](Cc1ccc(Cl)cc1)C(=O)O; Adipoyl = O=C(CCCCC(=O)[*:2])[*:1]; Cha = N[C@@H](CC1CCCCC1)C(=O)O; pGlu = O=C1CC[C@@H](C(=O)O)N1; Morpholide = C1CN(*)CCO1; Nle = CCCC[C@H](N)C(=O)O; Dap = NC[C@H](N)C(=O)O; Hexanoyl = CCCCCC(=O)*

How the values were obtained:
[1] = target: APJ (orphan G protein-coupled receptor protein); experiment: radioligand competition, 125I-labelled compound of Ref. Ex. 1 (100 pM), CHO-A10 membrane fraction
[2] = target: APJ (orphan G protein-coupled receptor protein); experiment: cell-based or functional assay
[3] = target: APJ (orphan G protein-coupled receptor protein); experiment: radioligand competition, compound of Ref. Ex. 2 as labelled ligand, CHO-A10 membrane fraction

APJ (orphan G protein-coupled receptor protein), sequence (P35414 whole entry): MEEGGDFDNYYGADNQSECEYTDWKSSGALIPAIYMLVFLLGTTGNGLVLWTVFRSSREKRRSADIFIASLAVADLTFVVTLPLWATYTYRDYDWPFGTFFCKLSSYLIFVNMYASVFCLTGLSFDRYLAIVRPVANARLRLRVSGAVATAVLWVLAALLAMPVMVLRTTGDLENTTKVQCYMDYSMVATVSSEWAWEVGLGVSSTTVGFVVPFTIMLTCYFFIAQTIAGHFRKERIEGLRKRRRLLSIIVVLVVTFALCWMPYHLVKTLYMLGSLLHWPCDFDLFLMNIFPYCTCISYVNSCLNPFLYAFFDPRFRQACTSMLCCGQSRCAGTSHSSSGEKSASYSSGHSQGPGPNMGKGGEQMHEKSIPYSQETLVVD

Binder	IC50 [1]	EC50, inhibition of forskolin-stimulated cAMP production (CHO-A10 clone 6 cells) [2]	IC50 [3]
RPRLFHKGP[Cha]PX (not fully specified (residue 12); printed as Arg-Pro-Arg-Leu-Phe-His-Lys-Gly-Pro-Cha-Pro-Phe(Cl)) [Arg-Pro-Arg-Leu-Phe-His-Lys-Gly-Pro-Cha-Pro-Phe(Cl)]	2.7 nM	1 nM	0.29 nM
XRPRLSHFGPMPF (N-terminal pGlu; peptide derivative; Xaa means pGlu) [pGlu-Arg-Pro-Arg-Leu-Ser-His-Phe-Gly-Pro-Met-Pro-Phe]		0.3 nM	2.6 nM
RPRLS[Dap](Adipoyl)RGP[Cha]P[Phe(4-Cl)] [Arg-Pro-Arg-Leu-Ser-Dap(Adi)-Arg-Gly-Pro-Cha-Pro-Phe(Cl)]	0.42 nM	0.42 nM	0.13 nM
[pGlu]RPRLFRRGPMPF [pGlu-Arg-Pro-Arg-Leu-Phe-Arg-Arg-Gly-Pro-Met-Pro-Phe]		0.15 nM	0.81 nM
RPRLSARGP[Cha]X (not fully specified (residue 11); printed as Arg-Pro-Arg-Leu-Ser-Ala-Arg-Gly-Pro-Cha-Phe(Cl)) [Arg-Pro-Arg-Leu-Ser-Ala-Arg-Gly-Pro-Cha-Phe(Cl)]	1 nM	0.65 nM	0.1 nM
RPRLSHKGPMX (C-terminal Cha; peptide derivative; Xaa means Cha) [Arg-Pro-Arg-Leu-Ser-His-Lys-Gly-Pro-Met-Cha]		0.22 nM	0.51 nM
RRQRPRLSARG-NMe2 [Arg-Arg-Gln-Arg-Pro-Arg-Leu-Ser-Ala-Arg-Gly-NMe2]		0.49 nM	0.16 nM
XRPRLSHRGPMPF (N-terminal pGlu; peptide derivative; Xaa means pGlu) [pGlu-Arg-Pro-Arg-Leu-Ser-His-Arg-Gly-Pro-Met-Pro-Phe]		0.2 nM	0.4 nM
RRQRPRLSARG-Morpholide [Arg-Arg-Gln-Arg-Pro-Arg-Leu-Ser-Ala-Arg-Gly-Mor]		1.2 nM	0.26 nM
XRPRLSAKGPMPF (N-terminal pGlu; peptide derivative; Xaa means pGlu) [pGlu-Arg-Pro-Arg-Leu-Ser-Ala-Lys-Gly-Pro-Met-Pro-Phe]		0.22 nM	0.21 nM
RRQRPRLSHKGPX (oxidized C-terminal residue; peptide; Xaa means Met(O)) [Arg-Arg-Gln-Arg-Pro-Arg-Leu-Ser-His-Lys-Gly-Pro-Met(O)]		0.48 nM	0.62 nM
RPRLSARGP[Cha]PF [Arg-Pro-Arg-Leu-Ser-Ala-Arg-Gly-Pro-Cha-Pro-Phe]	2.2 nM	0.59 nM	0.084 nM
XRPRLSHKGPXPF (N-terminal pGlu; Cha non-natural residue; peptide derivative; Xaa on the 1st position means pGlu.; Xaa on the 11th position means Cha.) [pGlu-Arg-Pro-Arg-Leu-Ser-His-Lys-Gly-Pro-Cha-Pro-Phe]	13 nM	0.35 nM	0.16 nM
XRPRLSLKGPMPF (N-terminal pGlu; peptide derivative; Xaa means pGlu) [pGlu-Arg-Pro-Arg-Leu-Ser-Leu-Lys-Gly-Pro-Met-Pro-Phe]		0.16 nM	0.59 nM
RPRLSHKGPMPX (C-terminal Nal(2); peptide derivative; Xaa means Nal(2)) [Arg-Pro-Arg-Leu-Ser-His-Lys-Gly-Pro-Met-Pro-Nal(2)]		0.1 nM	0.35 nM
RPALSHKGP[Cha]PX (not fully specified (residue 12); printed as Arg-Pro-Ala-Leu-Ser-His-Lys-Gly-Pro-Cha-Pro-Phe(Cl)) [Arg-Pro-Ala-Leu-Ser-His-Lys-Gly-Pro-Cha-Pro-Phe(Cl)]	0.41 nM	0.41 nM	0.15 nM
XRPRLFHKGPMPF (N-terminal pGlu; peptide derivative; Xaa means pGlu) [pGlu-Arg-Pro-Arg-Leu-Phe-His-Lys-Gly-Pro-Met-Pro-Phe]		0.22 nM	0.99 nM
[pGlu]RPRLSRRGPMPF [pGlu-Arg-Pro-Arg-Leu-Ser-Arg-Arg-Gly-Pro-Met-Pro-Phe]		0.069 nM	0.73 nM
RRQRPRLSHKGP[Cha]PX (not fully specified (residue 15); printed as Arg-Arg-Gln-Arg-Pro-Arg-Leu-Ser-His-Lys-Gly-Pro-Cha-Pro-Phe(Cl)) [Arg-Arg-Gln-Arg-Pro-Arg-Leu-Ser-His-Lys-Gly-Pro-Cha-Pro-Phe(Cl)]	0.47 nM	0.53 nM	0.33 nM
RPRLFARGP[Cha]PX (not fully specified (residue 12); printed as Arg-Pro-Arg-Leu-Phe-Ala-Arg-Gly-Pro-Cha-Pro-Phe(Cl)) [Arg-Pro-Arg-Leu-Phe-Ala-Arg-Gly-Pro-Cha-Pro-Phe(Cl)]	2.3 nM	1.2 nM	0.38 nM
RRQRPRLSHKGP[Nle]PY [Arg-Arg-Gln-Arg-Pro-Arg-Leu-Ser-His-Lys-Gly-Pro-Nle-Pro-Tyr]	2.7 nM	0.28 nM	0.027 nM
RPRLS[Dap](Hexanoyl)RGP[Cha]P[Phe(4-Cl)] [Arg-Pro-Arg-Leu-Ser-Dap(C6)-Arg-Gly-Pro-Cha-Pro-Phe(Cl)]	1.1 nM	1.1 nM	0.45 nM
RPRLSHKGPMPX (C-terminal Cha; peptide derivative; Xaa means Cha) [Arg-Pro-Arg-Leu-Ser-His-Lys-Gly-Pro-Met-Pro-Cha]		0.71 nM	3.5 nM
XRPRLSHKGPMX (N-terminal pGlu; C-terminal Nal(2); peptide derivative; Xaa on the 1st position means pGlu; Xaa on the 12th position means Nal(2)) [pGlu-Arg-Pro-Arg-Leu-Ser-His-Lys-Gly-Pro-Met-Nal(2)]		0.52 nM	1.4 nM

The remaining lines, values ahead:

IC50 [1]	EC50, inhibition of forskolin-stimulated cAMP production (CHO-A10 clone 6 cells) [2]	IC50 [3]	Binder
1.2 nM	0.51 nM	0.13 nM	RPRLSARGP[Cha]PX (not fully specified (residue 12); printed as Arg-Pro-Arg-Leu-Ser-Ala-Arg-Gly-Pro-Cha-Pro-Phe(Cl)) [Arg-Pro-Arg-Leu-Ser-Ala-Arg-Gly-Pro-Cha-Pro-Phe(Cl)]
	0.3 nM	1.3 nM	XRPRLSHKGPMX (N-terminal pGlu; C-terminal Cha; peptide derivative; Xaa on the 1st position means pGlu; Xaa on the 12th position means Cha) [pGlu-Arg-Pro-Arg-Leu-Ser-His-Lys-Gly-Pro-Met-Cha]
	0.37 nM	0.61 nM	RPRLSHKGPMX (Nal(2) non-natural residue; peptide derivative; Xaa means Nal(2)) [Arg-Pro-Arg-Leu-Ser-His-Lys-Gly-Pro-Met-Nal(2)]
0.58 nM	0.58 nM	0.22 nM	RPRLSHAGP[Cha]PX (not fully specified (residue 12); printed as Arg-Pro-Arg-Leu-Ser-His-Ala-Gly-Pro-Cha-Pro-Phe(Cl)) [Arg-Pro-Arg-Leu-Ser-His-Ala-Gly-Pro-Cha-Pro-Phe(Cl)]
	0.081 nM	0.23 nM	XRPRLSRKGPMPF (N-terminal pGlu; peptide derivative; Xaa means pGlu) [pGlu-Arg-Pro-Arg-Leu-Ser-Arg-Lys-Gly-Pro-Met-Pro-Phe]
	0.43 nM	0.54 nM	RPRLFHKGP[Cha]X (not fully specified (residue 11); printed as Arg-Pro-Arg-Leu-Phe-His-Lys-Gly-Pro-Cha-Phe(Cl)) [Arg-Pro-Arg-Leu-Phe-His-Lys-Gly-Pro-Cha-Phe(Cl)]
0.52 nM	0.52 nM	0.17 nM	RPRASHKGP[Cha]PX (not fully specified (residue 12); printed as Arg-Pro-Arg-Ala-Ser-His-Lys-Gly-Pro-Cha-Pro-Phe(Cl)) [Arg-Pro-Arg-Ala-Ser-His-Lys-Gly-Pro-Cha-Pro-Phe(Cl)]
	0.16 nM	3.6 nM	XRPRLSHLGPMPF (N-terminal pGlu; peptide derivative; Xaa means pGlu) [pGlu-Arg-Pro-Arg-Leu-Ser-His-Leu-Gly-Pro-Met-Pro-Phe]
2.9 nM	0.57 nM	0.84 nM	RRXRPRLSHKGPMPF (N-terminal branched Arg-Arg-Lys(Arg-Arg); peptide derivative; Xaa means Lys(Arg-Arg)) [Arg-Arg-Lys(Arg-Arg)-Arg-Pro-Arg-Leu-Ser-His-Lys-Gly-Pro-Met-Pro-Phe]
8 nM	0.46 nM	0.13 nM	RPRLFHKGP[Cha]PF [Arg-Pro-Arg-Leu-Phe-His-Lys-Gly-Pro-Cha-Pro-Phe]
	0.24 nM	0.95 nM	XRPRLSFKGPMPF (N-terminal pGlu; peptide derivative; Xaa means pGlu) [pGlu-Arg-Pro-Arg-Leu-Ser-Phe-Lys-Gly-Pro-Met-Pro-Phe]
1.4 nM	0.55 nM	0.046 nM	RRQRPRLSARGPX (C-terminal Cha; peptide derivative; Xaa means Cha.) [Arg-Arg-Gln-Arg-Pro-Arg-Leu-Ser-Ala-Arg-Gly-Pro-Cha]
